Test results taken from US12319742.

Tests used:
[1] = molecular target: human TNFRSF25 over-expressed on CHOK1 cells (cDNA sequence NP_683866) (human) (UniProt Q93038); assay: flow cytometry competition (upper panel); CHOK1-TNFRSF25+ cells with antibody 30 min at 4 C, then biotinylated human TL1A-Fc at 156 nM, PE-streptavidin
[2] = molecular target: human TNFRSF25 over-expressed on CHOK1 cells (cDNA sequence NP_683866) (human) (UniProt Q93038); assay: flow cytometry on CHOK1-TNFRSF25+ cells; APC anti-human Fc
[3] = molecular target: human TNFRSF25 over-expressed on CHOK1 cells (cDNA sequence NP_683866) (human) (UniProt Q93038); assay: flow cytometry on CHOK1-TNFRSF25+ cells (lower panel), 1 h at 4 C, APC anti-human Fc

Binder | IC50 [1] | EC50 [2] | EC50 (read off the curve) [3]
NH46 (whole antibody) (antibody, human IgG1, kappa, V domains shown) VH: QVQLVQSGSEVKKPGASVRVSCKVSGSTVKELSMHWVRQAPGKGLEWMGGYDPEDGESIFAQKFQGRVNMTEDRSTDTAYMELSSLRSEDTAVYYCATDLNWEDAFDVWGQGTMVTVSS VL: QSVLTQPPSVSAAPGQKVTISCSGSGSNIGNYYVAWYQQFPGTAPKLLIYDNNKRPSGIPDRFSGSKSGTSATLGITGLQTGDEADYYCGTWDTSLTAGDIYVFGTGTKVTVLR | 49 nM | 0.05 nM | –
NH24-35 (antibody) (antibody, V domains shown) VH: EVQLVESGGGSVQPGGSLRLSCAASGFTFSSYGMSWIRQAPGKGLEWVSYISSSGGHTYYADSVKGRFTISRDNAKNSLYLQMNSLRAEDTAVYYCARYSGAFDHWGQGTLVTVSS VL: DIVMTQSPSSLSASVGDRVTITCQASQDITNYLSWYQQKPGKAPKLLINDASNLETGVPSRFSGSGSGTDFTFTISSLQPEDIATYYCQQYDTLPITFGQGTRLEIKR | 4 nM | – | –
NH24-72 (antibody, V domains shown) VH: EVQLVESGGGSVQPGGSLRLSCAASGFTFSSYGMNWIRQAPGKGLEWITYISSSGGHTYYADSVKGRFTISRDNAKNSLYLQMNSLRAEDTAVYYCARGQGPFEYWGQGTLVTVSS VL: DIVMTQSPSSLSASVGDRVTITCQASQDISNYLSWYQQKPGKAPKLLINDASNLETGVPSRFSGSGSGTDFTFTISSLQPEDIATYYCQQYDNLPITFGQGTRLEIKR | 8 nM | – | –

Further lines, results first:

IC50 [1] | EC50 [2] | EC50 (read off the curve) [3] | Binder
– | – | 0.003 nM | SL-061mut213 (antibody, human IgG1, kappa, V domains shown) VH: QVQLQQSGPGLVKPSQTLSLTCAISGDSVSSYSAAWNWIRQSPSRGLEWLGRTYYRSKWFNDYAVSVKSRITINPDTSKNQFSLQLNSVTPEDTAVYYCARDYYGSESYYNRGYYYYGLDVWGQGTTVTVSS VL: AIQLTQSPSSLSASVGDRVTITCRASPSISSALAWYQQKPGKAPKLLMYDESSQEGSVPSRFSGSGSGTDFTLTISSLQPEDFATYYCQQFNEYPLTFGGGTKVEIKR
49 nM | – | – | NH24-162 (antibody, V domains shown) VH: EVQLVESGGGSVQPGGSLRLSCAASGFTFSSYGMSWVRQAPGKGLEWISYISSSGGHTYYADSVKGQFTISRDNAKNSLYLQMNSLRAEDTAVYYCARGSGSFDYWGQGTLVTVSS VL: DIVMTQSPSSLSASVGDRVTITCQASQDISNYLSWYQQKPGKAPKLLISDASNLETGVPSRFSGSGSGTDFTFTISSLQPEDIATYYCQQYDNLPITFGQGTRLEIKR
